Earlier results, collected in patent US20220347322A1, “METHOD OF TREATING ARTERIOVENOUS MALFORMATIONS BY TARGETING THE EPHRIN PATHWAY” (THE REGENTS OF THE UNIVERSITY OF CALIFORNIA, priority 2019, published 2022).

System: EphB4 signaling
Details: in mice; cited reference 38; cited from earlier work

B1: sEphB4: The soluble extracellular domain of EphB4; pharmacological inhibitor of EphB4 signaling (protein, UniProt P54760 16-539, looked up)
extracellular domain: LEETLLNTKLETADLKWVTFPQVDGQWEELSGLDEEQHSVRTYEVCDVQRAPGQAHWLRTGWVPRRGAVHVYATLRFTMLECLSLPRAGRSCKETFTVFYYESDADTATALTPAWMENPYIKVDTVAAEHLTRKRPGAEATGKVNVKTLRLGPLSKAGFYLAFQDQGACMALLSLHLFYKKCAQLTVNLTRFPETVPRELVVPVAGSCVVDAVPAPGPSPSLYCREDGQWAEQPVTGCSCAPGFEAAEGNTKCRACAQGTFKPLSGEGSCQPCPANSHSNTIGSAVCQCRVGYFRARTDPRGAPCTTPPSAPRSVVSRLNGSSLHLEWSAPLESGGREDLTYALRCRECRPGGSCAPCGGDLTFDPGPRDLVEPWVVVRGLRPDFTYTFEVTALNGVSSLATGPVPFEPVNVTTDREVPPAVSDIRVTRSSPSSLSLAWAVPRAPSGAVLDYEVKYHEKGAEGPSSVRFLKTSENRAELRGLKRGASYLVQVRARSEAGYGPFGQEHHSQTQLDESEGWREQLA
modifications: extracellular domain
inhibition of EphB4 signaling: completely inhibits EphB4 signaling
